Results: PMC5346439
Values belong to the substance of their own block, whether it stands above or below them.

Key:
[1] = molecular target: human MC5 (melanocortin receptor 5) (human) (UniProt P33032)
[2] = molecular target: human MC3 (melanocortin receptor 3) (human) (UniProt P41968)
[3] = molecular target: mouse MC3 (melanocortin receptor 3) (mouse) (UniProt P33033)
[4] = molecular target: human MC4 (melanocortin receptor 4) (human) (UniProt P32245)
Chain of UniProt P32245 (P32245 whole entry): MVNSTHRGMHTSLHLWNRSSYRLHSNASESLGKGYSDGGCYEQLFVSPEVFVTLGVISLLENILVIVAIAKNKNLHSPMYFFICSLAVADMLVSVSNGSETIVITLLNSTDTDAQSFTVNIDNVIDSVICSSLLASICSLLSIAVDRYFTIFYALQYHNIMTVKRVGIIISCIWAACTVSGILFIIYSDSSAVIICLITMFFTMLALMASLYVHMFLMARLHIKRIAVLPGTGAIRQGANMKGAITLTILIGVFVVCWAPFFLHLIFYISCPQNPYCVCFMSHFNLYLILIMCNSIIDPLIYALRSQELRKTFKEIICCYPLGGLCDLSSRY

Chain of UniProt P33033 (P33033 whole entry): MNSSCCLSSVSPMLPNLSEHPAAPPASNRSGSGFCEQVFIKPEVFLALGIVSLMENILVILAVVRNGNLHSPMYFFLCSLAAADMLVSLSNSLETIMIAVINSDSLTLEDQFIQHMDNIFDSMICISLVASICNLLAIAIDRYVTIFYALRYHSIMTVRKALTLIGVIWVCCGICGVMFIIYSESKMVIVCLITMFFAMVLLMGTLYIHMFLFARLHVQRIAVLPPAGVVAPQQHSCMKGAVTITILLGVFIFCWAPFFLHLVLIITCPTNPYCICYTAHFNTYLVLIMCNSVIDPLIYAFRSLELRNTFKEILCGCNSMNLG
Chain of UniProt P33032 (P33032 whole entry): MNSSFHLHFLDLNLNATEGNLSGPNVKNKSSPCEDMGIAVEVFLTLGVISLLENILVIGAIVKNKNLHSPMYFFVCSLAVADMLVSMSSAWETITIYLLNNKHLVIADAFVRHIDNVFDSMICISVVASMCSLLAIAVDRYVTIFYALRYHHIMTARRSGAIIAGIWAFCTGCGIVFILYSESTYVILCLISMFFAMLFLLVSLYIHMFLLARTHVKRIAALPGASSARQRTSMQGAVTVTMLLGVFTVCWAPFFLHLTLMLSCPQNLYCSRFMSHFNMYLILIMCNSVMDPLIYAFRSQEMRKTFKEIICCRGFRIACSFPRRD
Chain of UniProt P41968 (P41968 whole entry): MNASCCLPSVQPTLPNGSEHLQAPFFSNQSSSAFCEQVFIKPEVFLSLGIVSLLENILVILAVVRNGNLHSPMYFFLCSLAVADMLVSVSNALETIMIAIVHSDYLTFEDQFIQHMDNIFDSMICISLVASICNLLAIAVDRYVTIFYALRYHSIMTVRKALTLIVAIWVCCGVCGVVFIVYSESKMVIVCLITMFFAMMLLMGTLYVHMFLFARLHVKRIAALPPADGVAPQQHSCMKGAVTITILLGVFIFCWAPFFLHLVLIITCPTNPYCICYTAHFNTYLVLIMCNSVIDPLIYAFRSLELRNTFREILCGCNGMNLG

- pEC50 of cAMP production (HTRF cAMP assay) in receptor-transfected cells, with 0-30 μM fenoprofen; 6.13 at 0 μM, highest at 30 μM [1]: 6.8 pEC50
- pEC50 of cAMP production (HTRF cAMP assay) in receptor-transfected cells, with 0-30 μM fenoprofen; 8.80 at 0 μM, highest at 30 μM [2]: 9.35 pEC50
- pEC50 of cAMP production (HTRF cAMP assay) in receptor-transfected cells, with 0-30 μM fenoprofen; 9.19 at 0 μM, highest at 10 μM [3]: 9.3 pEC50
- pEC50 of cAMP production (HTRF cAMP assay) in receptor-transfected cells, with 0-30 μM fenoprofen; 7.33 at 0 μM, highest at 30 μM [4]: 7.72 pEC50
Substance: Lys-γ3MSH (peptide)

- pEC50 of cAMP production (HTRF cAMP assay) in receptor-transfected cells, with 0-30 μM fenoprofen; 8.98 at 0 μM, highest at 10 μM [1]: 9.06 pEC50
- pEC50 of cAMP production (HTRF cAMP assay) in receptor-transfected cells, with 0-30 μM fenoprofen; 9.40 at 0 μM, highest at 30 μM [2]: 9.66 pEC50
- pEC50 of cAMP production (HTRF cAMP assay) in receptor-transfected cells, with 0-30 μM fenoprofen; 9.78 at 0 μM, highest at 3 μM [3]: 9.86 pEC50
- pEC50 of cAMP production (HTRF cAMP assay) in receptor-transfected cells, with 0-30 μM fenoprofen; highest at 0 μM, 10.38 at 30 μM [4]: 10.5 pEC50
Substance: NDP-αMSH (peptide)

- pEC50 of cAMP production (HTRF cAMP assay) in receptor-transfected cells, with 0-30 μM fenoprofen; 6.78 at 0 μM, highest at 30 μM [1]: 7.29 pEC50
- pEC50 of cAMP production (HTRF cAMP assay) in receptor-transfected cells, with 0-30 μM fenoprofen; 8.19 at 0 μM, highest at 30 μM [2]: 8.87 pEC50
- pEC50 of cAMP production (HTRF cAMP assay) in receptor-transfected cells, with 0-30 μM fenoprofen; 8.69 at 0 μM, highest at 30 μM [3]: 9.03 pEC50
- pEC50 of cAMP production (HTRF cAMP assay) in receptor-transfected cells, with 0-30 μM fenoprofen; 8.76 at 0 μM, highest at 30 μM [4]: 9.25 pEC50
Substance: ACTH (peptide)

- pEC50 of cAMP production (HTRF cAMP assay) in receptor-transfected cells, with 0-30 μM fenoprofen; 6.64 at 0 μM, highest at 30 μM [1]: 7.22 pEC50
- pEC50 of cAMP production (HTRF cAMP assay) in receptor-transfected cells, with 0-30 μM fenoprofen; 7.58 at 0 μM, highest at 30 μM [2]: 8.3 pEC50
- pEC50 of cAMP production (HTRF cAMP assay) in receptor-transfected cells, with 0-30 μM fenoprofen; 8.33 at 0 μM, highest at 30 μM [3]: 8.86 pEC50
- pEC50 of cAMP production (HTRF cAMP assay) in receptor-transfected cells, with 0-30 μM fenoprofen; 8.38 at 0 μM, highest at 30 μM [4]: 9.11 pEC50
Substance: αMSH (melanocyte-stimulating hormone) (peptide)
